Earlier results in publication PMC9357288.

Biological target: Hck SH3 (Homo sapiens) (UniProt P08631)
Chain of UniProt P08631 (P08631 75-141): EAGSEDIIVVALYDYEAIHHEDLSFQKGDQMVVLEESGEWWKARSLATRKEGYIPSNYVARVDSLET

For Nef (from UniProt P04324), which Kd is on record?
The Kd was 250 nM.
